Measurements: ChEMBL document CHEMBL1908105, “UDP-glucuronosyltransferases and clinical drug-drug interactions” (Pharmacol Ther, 2005)

Tests used:
[1] = substrate: O=C(c1ccc(OCCN2CCCCC2)cc1)c1c(-c2ccc(O[C@H]3O[C@H](C(=O)O)[C@@H](O)[C@H](O)[C@H]3O)cc2)sc2cc(O)ccc12; assay: (§1) Drug glucuronidation reaction catalyzed by human recombinant UGT1A10
[2] = substrate: CN1CC[C@]23c4c5ccc(O[C@@H]6O[C@H](C(=O)O)[C@@H](O)[C@H](O)[C@H]6O)c4O[C@H]2[C@@H](O)C=C[C@H]3[C@H]1C5; assay: as §1
[3] = substrate: Cc1c(Cl)cccc1Nc1ncccc1C(=O)O; assay: not read
[4] = substrate: O=C1Nc2ccc(Cl)cc2C(c2ccccc2)=N[C@H]1O; assay: not read
[5] = substrate: O=C1Nc2ccc(Cl)cc2C(c2ccccc2)=N[C@@H]1O; assay: not read
[6] = substrate: C=CCN1CC[C@]23c4c5ccc(O)c4O[C@H]2[C@@H](O)C=C[C@H]3[C@H]1C5; assay: (§2) Drug glucuronidation reaction catalyzed by human recombinant UGT2B7
[7] = substrate: COc1ccc(Cl)cc1[C@]1(F)C(=O)Nc2cc(C(F)(F)F)ccc21; assay: as §2
[8] = substrate: CCC[S+]([O-])CCCN(CC)CC(O)COc1ccc(C#N)cc1; assay: as §2
[9] = substrate: CC(C(=O)O)c1cccc(C(=O)c2ccccc2)c1; assay: as §2
[10] = substrate: NC(=O)N1c2ccccc2C=Cc2ccccc21; assay: as §2
[11] = substrate: CS(=O)(=O)c1ccc(C2=C(c3ccccc3)C(=O)OC2O)cc1; assay: as §2
[12] = substrate: COc1cccc2c1C(=O)c1c(O)c3c(c(O)c1C2=O)C[C@@](O)(C(=O)CO)C[C@@H]3O[C@H]1C[C@H](N)[C@@H](O)[C@H](C)O1; assay: as §2
[13] = substrate: CO[C@]12CC[C@@]3(C[C@@H]1[C@](C)(O)C(C)(C)C)[C@H]1Cc4ccc(O)c5c4[C@@]3(CCN1CC1CC1)[C@H]2O5; assay: as §2
[14] = substrate: C=CC[C@@H]1/C=C(\C)C[C@H](C)C[C@H](OC)[C@H]2O[C@@](O)(C(=O)C(=O)N3CCCC[C@H]3C(=O)O[C@H](/C(C)=C/[C@@H]3CC[C@@H](O)[C@H](OC)C3)[C@H](C)[C@@H](O)CC1=O)[C@H](C)C[C@@H]2OC; assay: as §2
[15] = substrate: O=C1[C@H](CC[C@H](O)c2ccc(F)cc2)[C@@H](c2ccc(O)cc2)N1c1ccc(F)cc1; assay: as §2
[16] = substrate: CC(C)Cc1ccc(C(C)C(=O)O)cc1; assay: as §2
[17] = substrate: O=C(c1ccc(OCCN2CCCCC2)cc1)c1c(-c2ccc(O[C@H]3O[C@H](C(=O)O)[C@@H](O)[C@H](O)[C@H]3O)cc2)sc2cc(O)ccc12; assay: (§3) Drug glucuronidation reaction catalyzed by human recombinant UGT1A9
[18] = substrate: O=C(c1ccc(OCCN2CCCCC2)cc1)c1c(-c2ccc(O)cc2)sc2cc(O[C@@H]3O[C@H](C(=O)O)[C@@H](O)[C@H](O)[C@H]3O)ccc12; assay: as §3
[19] = substrate: CCc1c2c(nc3ccc(O)cc13)-c1cc3c(c(=O)n1C2)COC(=O)[C@]3(O)CC; assay: as §3
[20] = substrate: CCC[S+]([O-])CCCN(CC)CC(O)COc1ccc(C#N)cc1; assay: as §3
[21] = substrate: COc1c(C)c2c(c(O)c1C/C=C(\C)CCC(=O)O)C(=O)OC2; assay: as §3
[22] = substrate: CN1CC[C@H](c2c(O)cc(O)c3c(=O)cc(-c4ccccc4Cl)oc23)[C@H](O)C1; assay: as §3
[23] = substrate: CN1CC[C@]23c4c5ccc(O[C@@H]6O[C@H](C(=O)O)[C@@H](O)[C@H](O)[C@H]6O)c4O[C@H]2[C@@H](O)C=C[C@H]3[C@H]1C5; assay: as §3
[24] = substrate: CCN(CC)C(=O)/C(C#N)=C/c1cc(O)c(O)c([N+](=O)[O-])c1; assay: as §3
[25] = substrate: Cc1ccc(C(=O)c2cc(O)c(O)c([N+](=O)[O-])c2)cc1; assay: as §3
[26] = substrate: CC(=O)Nc1ccc(O)cc1; assay: as §3
[27] = substrate: CC(C)c1cccc(C(C)C)c1O; assay: not read

B1: UDP-glucuronosyltransferase 1A10 (Homo sapiens) (protein)
chain: MARAGWTSPVPLCVCLLLTCGFAEAGKLLVVPMDGSHWFTMQSVVEKLILRGHEVVVVMPEVSWQLERSLNCTVKTYSTSYTLEDQNREFMVFAHAQWKAQAQSIFSLLMSSSSGFLDLFFSHCRSLFNDRKLVEYLKESSFDAVFLDPFDTCGLIVAKYFSLPSVVFTRGIFCHHLEEGAQCPAPLSYVPNDLLGFSDAMTFKERVWNHIVHLEDHLFCQYLFRNALEIASEILQTPVTAYDLYSHTSIWLLRTDFVLDYPKPVMPNMIFIGGINCHQGKPLPMEFEAYINASGEHGIVVFSLGSMVSEIPEKKAMAIADALGKIPQTVLWRYTGTRPSNLANNTILVKWLPQNDLLGHPMTRAFITHAGSHGVYESICNGVPMVMMPLFGDQMDNAKRMETKGAGVTLNVLEMTSEDLENALKAVINDKSYKENIMRLSSLHKDRPVEPLDLAVFWVEFVMRHKGAPHLRPAAHDLTWYQYHSLDVIGFLLAVVLTVAFITFKCCAYGYRKCLGKKGRVKKAHKSKTH
In the case of B1, the Km [1] is reported as 5 µM, the Vmax [1] is reported as 0.00055 µmol/min/mg and the Km [2] is reported as 12600 µM. It also gave a Vmax [2] of 0.000629 µmol/min/mg.

B2: UDP-glucuronosyltransferase 2B7 (Homo sapiens) (protein)
chain: MSVKWTSVILLIQLSFCFSSGNCGKVLVWAAEYSHWMNIKTILDELIQRGHEVTVLASSASILFDPNNSSALKIEIYPTSLTKTELENFIMQQIKRWSDLPKDTFWLYFSQVQEIMSIFGDITRKFCKDVVSNKKFMKKVQESRFDVIFADAIFPCSELLAELFNIPFVYSLSFSPGYTFEKHSGGFIFPPSYVPVVMSELTDQMTFMERVKNMIYVLYFDFWFEIFDMKKWDQFYSEVLGRPTTLSETMGKADVWLIRNSWNFQFPYPLLPNVDFVGGLHCKPAKPLPKEMEDFVQSSGENGVVVFSLGSMVSNMTEERANVIASALAQIPQKVLWRFDGNKPDTLGLNTRLYKWIPQNDLLGHPKTRAFITHGGANGIYEAIYHGIPMVGIPLFADQPDNIAHMKARGAAVRVDFNTMSSTDLLNALKRVINDPSYKENVMKLSRIQHDQPVKPLDRAVFWIEFVMRHKGAKHLRVAAHDLTWFQYHSLDVIGFLLVCVATVIFIVTKCCLFCFWKFARKAKKGKND
Protein B2 has a Km [3] of 64 µM, a Vmax [3] of 0.00022 µmol/min/mg and a Km [4] of 203 µM. For the same protein, the Vmax [4] was 2e-06 µmol/min/mg, the Km [5] was 333 µM and the Vmax [5] was 7e-06 µmol/min/mg. For the same protein, the Km [6] was 260 µM, the Vmax [6] was 0.000461 µmol/min/mg and the Km [7] was 14 µM. It also gave a Vmax [7] of 0.00029 µmol/min/mg, a Km [8] of 970 µM and a Vmax [8] of 2.1e-05 µmol/min/mg. The Km [9] was 112 µM, the Vmax [9] was 0.00045 µmol/min/mg and the Km [10] was 214 µM. The Vmax [10] was 1e-06 µmol/min/mg, the Km [11] was 42 µM and the Vmax [11] was 4.7e-05 µmol/min/mg. For the same protein, the Km [12] was 149 µM, the Vmax [12] was 9.9e-05 µmol/min/mg and the Km [13] was 24 µM. For the same protein, the Vmax [13] was 2.6e-05 µmol/min/mg, the Km [14] was 449 µM and the Vmax [14] was 0.000588 µmol/min/mg. It also gave a Km [15] of 21 µM, a Vmax [15] of 5e-05 µmol/min/mg and a Km [16] of 55 µM. For the same protein, the Vmax [16] was 0.000477 µmol/min/mg.

B3: UDP-glucuronosyltransferase 1A9 (Homo sapiens) (protein)
chain: MACTGWTSPLPLCVCLLLTCGFAEAGKLLVVPMDGSHWFTMRSVVEKLILRGHEVVVVMPEVSWQLGRSLNCTVKTYSTSYTLEDLDREFKAFAHAQWKAQVRSIYSLLMGSYNDIFDLFFSNCRSLFKDKKLVEYLKESSFDAVFLDPFDNCGLIVAKYFSLPSVVFARGILCHYLEEGAQCPAPLSYVPRILLGFSDAMTFKERVRNHIMHLEEHLLCHRFFKNALEIASEILQTPVTEYDLYSHTSIWLLRTDFVLDYPKPVMPNMIFIGGINCHQGKPLPMEFEAYINASGEHGIVVFSLGSMVSEIPEKKAMAIADALGKIPQTVLWRYTGTRPSNLANNTILVKWLPQNDLLGHPMTRAFITHAGSHGVYESICNGVPMVMMPLFGDQMDNAKRMETKGAGVTLNVLEMTSEDLENALKAVINDKSYKENIMRLSSLHKDRPVEPLDLAVFWVEFVMRHKGAPHLRPAAHDLTWYQYHSLDVIGFLLAVVLTVAFITFKCCAYGYRKCLGKKGRVKKAHKSKTH
For B3, the Km [17] was 13 µM, the Vmax [17] was 0.00025 µmol/min/mg and the Km [18] was 25 µM. The Vmax [18] was 0.00032 µmol/min/mg, the Km [19] was 13 µM and the Vmax [19] was 2e-05 µmol/min/mg. It also gave a Km [20] of 1060 µM, a Vmax [20] of 9.2e-05 µmol/min/mg and a Km [21] of 291 µM. For the same protein, the Vmax [21] was 0.00838 µmol/min/mg, the Km [22] was 37 µM and the Vmax [22] was 5.6e-05 µmol/min/mg. For the same protein, the Km [23] was 37400 µM, the Vmax [23] was 3.2e-05 µmol/min/mg and the Km [24] was 10 µM. It also gave a Vmax [24] of 0.0018 µmol/min/mg, a Km [25] of 66 µM and a Vmax [25] of 0.00048 µmol/min/mg. It also gave a Km [26] of 20900 µM, a Vmax [26] of 0.0063 µmol/min/mg and a Km [27] of 37 µM. The Vmax [27] was 0.0028 µmol/min/mg, the Km [5] was 12 µM and the Vmax [5] was 3e-06 µmol/min/mg.
